# Assay results from US20190040368.
# T1: recombinant human iduronate-2 sulfatase (rhIDS)
# T1 chain: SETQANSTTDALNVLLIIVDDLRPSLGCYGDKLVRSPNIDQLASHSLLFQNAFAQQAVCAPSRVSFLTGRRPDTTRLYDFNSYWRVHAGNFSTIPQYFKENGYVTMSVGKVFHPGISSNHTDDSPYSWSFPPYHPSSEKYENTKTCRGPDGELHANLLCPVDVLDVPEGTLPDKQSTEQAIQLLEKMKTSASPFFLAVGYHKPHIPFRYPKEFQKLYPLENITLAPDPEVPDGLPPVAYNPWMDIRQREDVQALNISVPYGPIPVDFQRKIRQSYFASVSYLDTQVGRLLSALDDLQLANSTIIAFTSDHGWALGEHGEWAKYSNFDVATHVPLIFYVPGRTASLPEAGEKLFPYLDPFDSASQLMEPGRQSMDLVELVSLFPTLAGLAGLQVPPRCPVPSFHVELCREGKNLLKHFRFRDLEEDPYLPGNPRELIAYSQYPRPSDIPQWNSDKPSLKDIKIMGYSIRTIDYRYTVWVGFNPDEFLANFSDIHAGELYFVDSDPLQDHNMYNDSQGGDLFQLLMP
# T2: recombinant human sulfamidase (rSGSH)
# T2 chain: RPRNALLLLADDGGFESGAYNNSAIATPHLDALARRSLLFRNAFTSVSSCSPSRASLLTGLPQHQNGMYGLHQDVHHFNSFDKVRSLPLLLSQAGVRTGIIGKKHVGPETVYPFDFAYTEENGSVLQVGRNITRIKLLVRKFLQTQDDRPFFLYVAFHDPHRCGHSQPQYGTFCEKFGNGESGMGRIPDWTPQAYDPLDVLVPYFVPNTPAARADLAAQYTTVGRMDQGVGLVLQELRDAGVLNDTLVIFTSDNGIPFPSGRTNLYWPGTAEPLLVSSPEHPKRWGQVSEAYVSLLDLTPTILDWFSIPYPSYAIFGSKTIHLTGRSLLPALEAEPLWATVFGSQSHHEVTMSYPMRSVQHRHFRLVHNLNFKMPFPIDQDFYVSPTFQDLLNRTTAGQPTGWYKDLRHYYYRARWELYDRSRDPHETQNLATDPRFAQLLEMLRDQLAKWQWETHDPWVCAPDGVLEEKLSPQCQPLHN
# Columns and labels:
# [1] = target: T1, recombinant human iduronate-2 sulfatase …
# [2] = target: T2, recombinant human sulfamidase (rSGSH)
protein,measurement,setting,value
Bos taurus FGE fusion protein (Lip2pre-BtFGE-6HIS-HDEL) (protein) GEEAGPEAGAPSLVGSCGCGNPQRPGAQGSSAAAHRYSREANAPGSVPGGRPSPPTKMVPIPAGVFTMGTDDPQIKQDGEAPARRVAIDAFYMDAYEVSNAEFEKFVNSTGYLTEAEKFGDSFVFEGMLSEQVKSDIQQAVAAAPWWLPVKGANWRHPEGPDSTVLHRPDHPVLHVSWNDAVAYCTWAGKRLPTEAEWEYSCRGGLQNRLFPWGNKLQPKGQHYANIWQGEFPVTNTGEDGFRGTAPVDAFPPNGYGLYNIVGNAWEWTSDWWTVHHSAEETINPKGPPSGKDRVKKGGSYMCHKSYCYRYRCAARSQNTPDSSASNLGFRCAADHLPTTGADHLPTTGHHHHHHHDEL,% FGly conversion (nano-LC MS); strain T146 (OXYY1828; BtFGE),[1],89.8%
same,"% FGly conversion (nano-LC MS); strain T146 (OXYY1828; BtFGE), duplicate",[1],92.7%
same,"% FGly conversion-re-analyzed samples; DG29U5#7, OXYY1828; BtFGE",[1],95.8%
same,"% FGly conversion-re-analyzed samples; DG33U6#6, OXYY1803; BtFGE and hPDI co-expressed",[1],90.3%
same,"% FGly conversion-re-analyzed samples; DG33U8#6, OXYY1828; BtFGE",[1],97.1%
same,"% FGly conversion; DG33U6#6, OXYY1803; BtFGE and hPDI co-expressed",[1],79.5%
same,% FGly conversion; two copies of rhIDS and one copy of BtFGE (POX2 driven),[1],100% FGly conversion at a detection limit of -0.5%
same,"% active rhIDS (4MU activity against ELISA); 1 copy rhIDS, 1 copy BtFGE (POX)",[1],129%
same,"% active rhIDS (4MU activity against ELISA); 1 copy rhIDS, 1 copy BtFGE (POX), 1 copy hPDI (POX)",[1],121%
same,% activity of rhIDS; two copies of rhIDS and one copy of BtFGE (POX2 driven),[1],101% activity
same,Cys->FGly conversion in rhIDS (nano-LC-MS after cation exchange purification); BtFGE as a single POX2 driven copy,[1],"complete conversion (100%, with a detection limit of -0.5%)"
same,"active rhIDS (4MU fluorogenic activity assay against sandwich ELISA), co-expression in Y. lipolytica",[1],All Y. lipolytica strains co-expressing rFGE with rhIDS resulted in the expression of active rhIDS.
same,"% FGly conversion; sample 1, SGSH (POX) + BtFGE (POX) + hPDI (POX)",[2],95.4%
same,"% FGly conversion; sample 2, SGSH (POX) + BtFGE (POX) + hPDI (POX)",[2],80.4%
same,"% FGly conversion; sample 3, SGSH (POX) + BtFGE (POX) + hPDI (POX) §",[2],93.4%
same,"% FGly conversion; sample 4, SGSH (POX) + BtFGE (POX) + hPDI (POX) §",[2],86.1%
same,"% FGly conversion; sample 5, SGSH (POX) + BtFGE (POX & Hp4d)",[2],94.4%
